The results in this text go back to publication PMC3169596, “G4-DNA Formation in the HRAS Promoter and Rational Design of Decoy Oligonucleotides for Cancer Therapy”.

The data set addresses T1, MAZ-GST (UniProt P56270 1-477).
T1 sequence: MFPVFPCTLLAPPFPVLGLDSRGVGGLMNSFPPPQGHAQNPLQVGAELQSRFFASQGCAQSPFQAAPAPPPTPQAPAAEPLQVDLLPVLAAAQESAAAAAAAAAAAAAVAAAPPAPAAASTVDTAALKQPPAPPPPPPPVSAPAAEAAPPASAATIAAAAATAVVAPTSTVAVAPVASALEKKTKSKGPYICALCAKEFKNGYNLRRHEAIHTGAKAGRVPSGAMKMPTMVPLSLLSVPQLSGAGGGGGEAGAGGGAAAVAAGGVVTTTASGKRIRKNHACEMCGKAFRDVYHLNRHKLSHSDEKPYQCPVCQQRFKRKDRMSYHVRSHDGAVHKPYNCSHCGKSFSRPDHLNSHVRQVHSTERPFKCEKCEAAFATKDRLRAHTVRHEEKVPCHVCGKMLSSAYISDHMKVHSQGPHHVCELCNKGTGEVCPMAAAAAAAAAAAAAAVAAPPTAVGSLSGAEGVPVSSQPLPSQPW
In words: EMSA; 50 mM KCl, pH 7.4, poly d(I-C); apparent Kd given for the HRAS quadruplexes together; EMSA: 20 mM Tris-HCl pH 8, 30 mM KCl, 1.5 mM MgCl2, 1 mM DTT, 8% glycerol, 5 mM NaF, 1 mM Na3VO4, 2.5 ng/ml poly[dI-dC], 30 min room temperature (Figure 6c: pH). Particulars: protein: recombinant; tags: GST; label: 33P; antiparallel intramolecular G4 in K+. In general terms: Mobility shift assays separate free from complexed probe on a gel.

With TCGGGTTGCGGGCGCAGGGCACGGGCG (structured_DNA) [qhras-1 (quadruplex hras-1, H1)], the Kd was ~1500 nM.
